According to article PMC3161515 (Molecular cell, 2011):

T1: YFP-ΔGL1,2 Pins-CFP fusion protein (Pins FRET biosensor) (Drosophila, UniProt Q9VB22 1-658, R486F | R570F)
T1 sequence (looked up): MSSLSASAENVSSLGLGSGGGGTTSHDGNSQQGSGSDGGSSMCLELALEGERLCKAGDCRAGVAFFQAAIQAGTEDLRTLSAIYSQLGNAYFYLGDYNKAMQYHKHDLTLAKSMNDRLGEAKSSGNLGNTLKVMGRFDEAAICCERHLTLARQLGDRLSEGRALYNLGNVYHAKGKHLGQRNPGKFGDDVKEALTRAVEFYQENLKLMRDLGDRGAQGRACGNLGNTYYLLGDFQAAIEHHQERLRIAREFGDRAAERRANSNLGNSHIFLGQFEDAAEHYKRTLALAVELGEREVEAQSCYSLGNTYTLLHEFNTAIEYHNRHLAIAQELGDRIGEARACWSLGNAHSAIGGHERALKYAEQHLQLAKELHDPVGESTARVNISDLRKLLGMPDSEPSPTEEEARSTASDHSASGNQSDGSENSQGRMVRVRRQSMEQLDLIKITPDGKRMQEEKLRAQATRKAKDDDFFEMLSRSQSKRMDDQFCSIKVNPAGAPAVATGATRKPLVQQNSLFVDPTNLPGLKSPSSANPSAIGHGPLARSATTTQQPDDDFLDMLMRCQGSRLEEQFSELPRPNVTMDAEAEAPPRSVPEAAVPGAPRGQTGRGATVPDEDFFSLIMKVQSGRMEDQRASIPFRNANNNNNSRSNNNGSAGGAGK


Tests used:
[1] = molecular target: T1, YFP-ΔGL1,2 Pins-CFP fusion protein …; assay: FRET or BRET
[2] = molecular target: tetramethylrhodamine labeled Mud peptide (TMR-Mud) (Drosophila); assay: fluorescence polarisation

Row | Kd [1] | Pins activation (%) [2] | Binder
1 | 3.4 ± 0.3 µM |  | heterotrimeric G-protein alpha subunit Gαi, GDP-loaded (natural protein, UniProt P20353 1-355, looked up) MGCAVSTARDKEAIERSKNIDRALRAEGERAASEVKLLLLGAGESGKSTIVKQMKIIHDTGYSQEECEEYRRVVFSNTVQSLMVIIRAMGRLKIEFADPSRTDIARQFFTHASAADEGILLPEIVLLMKKLWADGGVQQSFARSREYQLNDSAGYYLNSLDRIAQPNYIPTQQDVLRTRVKTTGIIETHFSCKQLHFKLFDVGGQRSERKKWIHCFEGVTAIIFCVALSGYDLVLAEDEEMNRMIESLKLFDSICNSKWFVETSIILFLNKKDLFEEKIKRSPLTICFPEYTGTNTFEEAANYIRMKFENLNKRKDQKEIYTHLTCATDTNNVKFVFDAVTDVIIKNNLKQIGLF
2 |  | 85% | ΔGL1,2 Pins (R486F and R570F) (natural protein) MSSLSASAENVSSLGLGSGGGGTTSHDGNSQQGSGSDGGSSMCLELALEGERLCKAGDCRAGVAFFQAAIQAGTEDLRTLSAIYSQLGNAYFYLGDYNKAMQYHKHDLTLAKSMNDRLGEAKSSGNLGNTLKVMGRFDEAAICCERHLTLARQLGDRLSEGRALYNLGNVYHAKGKHLGQRNPGKFGDDVKEALTRAVEFYQENLKLMRDLGDRGAQGRACGNLGNTYYLLGDFQAAIEHHQERLRIAREFGDRAAERRANSNLGNSHIFLGQFEDAAEHYKRTLALAVELGEREVEAQSCYSLGNTYTLLHEFNTAIEYHNRHLAIAQELGDRIGEARACWSLGNAHSAIGGHERALKYAEQHLQLAKELHDPVGESTARVNISDLRKLLGMPDSEPSPTEEEARSTASDHSASGNQSDGSENSQGRMVRVRRQSMEQLDLIKITPDGKRMQEEKLRAQATRKAKDDDFFEMLSRSQSKRMDDQFCSIKVNPAGAPAVATGATRKPLVQQNSLFVDPTNLPGLKSPSSANPSAIGHGPLARSATTTQQPDDDFLDMLMRCQGSRLEEQFSELPRPNVTMDAEAEAPPRSVPEAAVPGAPRGQTGRGATVPDEDFFSLIMKVQSGRMEDQRASIPFRNANNNNNSRSNNNGSAGGAGK
